From patent publication US20220119492A1 (MEDIKINE, published 2022)
Bridge positions count the residues as written; N and C are the ends. Ends that are not written are not given here.

T1: human IL-2Rβ (CD122 protein, Fc Tag) (27-239) (human, UniProt P14784 27-239)
T1 construct: range 27-239; Bought protein; also called hu-IL-2Rβ subunit; IL-2Rβ subunit; not shown: Fc tag of the bought protein
T1 sequence (looked up): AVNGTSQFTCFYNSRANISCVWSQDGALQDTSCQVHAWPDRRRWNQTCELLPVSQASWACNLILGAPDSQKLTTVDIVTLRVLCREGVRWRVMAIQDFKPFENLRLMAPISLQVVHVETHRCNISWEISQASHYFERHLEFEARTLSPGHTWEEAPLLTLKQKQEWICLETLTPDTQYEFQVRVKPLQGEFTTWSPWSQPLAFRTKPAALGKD

B1: SEQ ID NO 2803 (peptide)
peptide: AYYPCELAQLGELCDLYNI
B2: SEQ ID NO 2801 (peptide)
peptide: TNGVLDWWPCWMAQVGELCDLD
B3: SEQ ID NO 2811 (peptide)
peptide: EWFHDCFLAKVGDLCDLFLW
B4: SEQ ID NO 2864 (peptide)
peptide: KWFHDCFLAKVGDLCDLFLW
B5: SEQ ID NO 2796 (peptide)
peptide: HRWYPCWLAHLGELCDLDPMS
B6: SEQ ID NO 2794 (peptide)
peptide: SLAHRSWYPCWLAQVGELCDLD
B7: SEQ ID NO 2808 (peptide)
peptide: RDWWLPCEFALIGELCDLERSW
B8: SEQ ID NO 2784 (peptide)
peptide: PTLITWYDCLFAEVGELCDM
B9: SEQ ID NO 2767 (peptide)
peptide: WWPCWIAQVGELCDLDGPGRPT
B10: SEQ ID NO 2787 (peptide)
peptide: FGGKMDWYPCWIANLGELCDLK
B11: SEQ ID NO 2775 (peptide)
peptide: AEYSGRYDCYIAKVGELCDI
B12: SEQ ID NO 2799 (peptide)
peptide: WTGWSAFYPCSIANLGELCDLD
B13: SEQ ID NO 2770 (peptide)
peptide: WYPCWIAQVGELCDLDEVSHGR
B14: SEQ ID NO 2769 (peptide)
peptide: WRILWMQQCWRSHVVNQCAL
B15: SEQ ID NO 2768 (peptide)
peptide: RLVYDCLFAQVGDLCEVIS
B16: SEQ ID NO 2773 (peptide)
peptide: FHPCWRALLGELCDLETALGPS
B17: SEQ ID NO 2781 (peptide)
peptide: WWPCWIAQVGELCDLEEESRES
B18: SEQ ID NO 2771 (peptide)
peptide: TGEWWPCWVAEVGELCDLERGP
B19: SEQ ID NO 2791 (peptide)
peptide: ERRWYPCWLASVGELCDLDMGD
B20: SEQ ID NO 2805 (peptide)
peptide: NDHTAWWPCYFAQVGDLCDLV
B21: SEQ ID NO 2792 (peptide)
peptide: WYPCWVAQLGELCDLE
B22: SEQ ID NO 2802 (peptide)
peptide: WYPCWVAKLGELCDLE
B23: SEQ ID NO 2806 (peptide)
peptide: WWPCEIAQIGELCDLEWVRHAE
modifications: disulfide 4-13 (inferred)
B24: SEQ ID NO 2788 (peptide)
peptide: WFPCWMAKVGDLCDVDEHQDPS
B25: SEQ ID NO 2790 (peptide)
peptide: MFRYYPCWIASIGELCDLEWGV
modifications: disulfide 7-16 (inferred)
B26: SEQ ID NO 2789 (peptide)
peptide: MGDSSSWFPCWMAQLGELCDME
B27: SEQ ID NO 2795 (peptide)
peptide: QNASKGWYPCWIAHVGELCDWD
B28: SEQ ID NO 2786 (peptide)
peptide: AQVWYPCWLAKVGELCDLDQWN
modifications: disulfide 7-16 (inferred)
B29: SEQ ID NO 2793 (peptide)
peptide: RWDYWPCYIAQVGELCDLEVYE
B30: SEQ ID NO 2810 (peptide)
peptide: SWHAETWYPCWLAQVGELCDLD
B31: SEQ ID NO 2776 (peptide)
peptide: SWRFLWQDCGRAHVGELCDL
B32: SEQ ID NO 2814 (peptide)
peptide: AGFRGRWWPCEYAQVGELCDLE
B33: SEQ ID NO 2779 (peptide)
peptide: WYPCEFAQLGELCDLLPFPYPA
B34: SEQ ID NO 2783 (peptide)
peptide: WWPCWIADLGELCDLEGPPRGR
modifications: disulfide 4-13 (inferred)
B35: SEQ ID NO 2800 (peptide)
peptide: WEKLQNWYPCWIAQMGELCDLE
B36: SEQ ID NO 2777 (peptide)
peptide: NRWWHPCWMARVGELCDLEPDA
B37: SEQ ID NO 2785 (peptide)
peptide: EISNWFLDCMFADVGDLCDL
B38: SEQ ID NO 2797 (peptide)
peptide: FYPCWIAFVGELCDLE
B39: SEQ ID NO 2780 (peptide)
peptide: SYMHDCFMAQVGDLCDRFIS
modifications: disulfide 6-15 (inferred)
B40: SEQ ID NO 2827 (peptide)
peptide: CYMHDCFMAQVGDLCDRFIS
modifications: not fully specified (bridges); also: disulfide between two of the three cysteines, pairing not given here
B41: SEQ ID NO 2813 (peptide)
peptide: DKAGPNFYPCWLAHVGELCDQA
B42: SEQ ID NO 2807 (peptide)
peptide: WWPCDFAQIGELCDLGPRFTGE
B43: SEQ ID NO 2812 (peptide)
peptide: SGKTQMWNPCYVAKVGELCDLV
B44: SEQ ID NO 2774 (peptide)
peptide: LQIRKLWACRIDLVGPFCLL
modifications: disulfide 9-18 (inferred)
B45: SEQ ID NO 2772 (peptide)
peptide: ARTQGWYDCLFAQVGELCDL
B46: SEQ ID NO 2778 (peptide)
peptide: WWPCWVAKLGELCDLEGDASRV
B47: SEQ ID NO 2782 (peptide)
peptide: KWAWNPCYIARLGELCDLVEPE
B48: SEQ ID NO 2798 (peptide)
peptide: EGHWYPCWIAQLGELCDLDW

Target: T1, human IL-2Rβ (CD122 protein, Fc Tag) …
Assay: phage ELISA competition
In short: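 Test ligands and a phage tracer competed for human IL-2Rβ-Fc in a binding ELISA, with IC50 obtained from the absorbance readings of the ligand dilution series. Without washing, 50 μL of phage tracer went on for 45 min at 4° C, and bound phage was developed with TMB for 1 to 15 min at 25° C before stop solution and absorbance at 450 nm.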

| Binder | IC50 [µM] |
| --- | --- |
| B1 | < 100 |
| B2 | < 100 |
| B3 | < 100 |
| B4 | < 100 |
| B5 | < 100 |
| B6 | < 100 |
| B7 | < 100 |
| B8 | < 100 |
| B9 | < 100 |
| B10 | < 100 |
| B11 | < 100 |
| B12 | < 100 |
| B13 | < 100 |
| B14 | < 100 |
| B15 | < 100 |
| B16 | < 100 |
| B17 | < 100 |
| B18 | < 100 |
| B19 | < 100 |
| B20 | < 100 |
| B21 | < 100 |
| B22 | < 100 |
| B23 | < 100 |
| B24 | < 100 |

| Binder | IC50 [µM] |
| --- | --- |
| B25 | < 100 |
| B26 | < 100 |
| B27 | < 100 |
| B28 | < 100 |
| B29 | < 100 |
| B30 | < 100 |
| B31 | < 100 |
| B32 | < 100 |
| B33 | < 100 |
| B34 | < 100 |
| B35 | < 100 |
| B36 | < 100 |
| B37 | < 100 |
| B38 | < 100 |
| B39 | < 100 |
| B40 | < 100 |
| B41 | < 100 |
| B42 | < 100 |
| B43 | < 100 |
| B44 | < 100 |
| B45 | < 100 |
| B46 | < 100 |
| B47 | < 100 |
| B48 | < 100 |
